This data set is described as follows: Standard protocol for determination of kcat and KM (continuous spectrophotometric assay, Acetyl CoA hydrolysis at 235 nm). The data set is classed as biochemical. The following applies: purified protein, about 23° C., 0.2 mM acetyl CoA; for Kcat: 20 mM HEPES pH 6.8, 10% ethylene glycol; for Km: pH 6.8, glyphosate 0.125 to 10 mM. A digest of the protocol: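 KM from initial rates over 0.125–10 mM glyphosate, fitted by Lineweaver-Burke transformation of Michaelis-Menten; kcat/KM computed as kcat divided by KM. Continuous spectrophotometric read of acetyl-CoA hydrolysis at 235 nm.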

B1: SEQ ID NO: 470: GAT polypeptide (protein)
chain: MIEVKPINAEETYELRHKILRPNQPLEACMYETDLLRGSFHLGGFYRGKLISIASFHQAEHSELEGQKQYQLRGMATLEGFRDQKAGSSLIKHAEEILRKRGADLLWCNARTSASGYYKKLGFSEQGEIFETPPVGPHILMYKRLT
modifications: 1_2B6
notes: GAT polypeptide
As usually defined, the Km is the concentration of substrate that gives half-maximal velocity. Take B1: the Kcat stood at 2.3 s⁻¹ and the Km came to 580 µM.

B2: SEQ ID NO: 475: GAT polypeptide (protein)
chain: MIEVKPINAEETYELRHKILRPNQPLEACMYETDLLRGAFHLGGFYRGKLISIASFHQADHSELQGQKQYQLRGMATLEGYREQKAGSTLIRHAEQILRKRGADLLWCNARTSAAGYYKKLGFSEHGEIFETPPVGPHILMYKRLT
modifications: 1_2H8
notes: GAT polypeptide
Regarding B2, the Kcat came out at 2.35 s⁻¹ and the Michaelis constant (Km) stood at 480 µM.

B3: SEQ ID NO: 469: GAT polypeptide (protein)
chain: MIEVKPINAEDTYELRHRILRPNQPIEACMYESDLLRGSFHLGGFYRGKLISIASFHQAEQSELEGQKQYQLRGMATLEGYRDQKAGSTLIKHAEEILRKKGADLLWCNARTSAAGYYKRLGFSEQGEIFDTPPVGPHILMYKRLT
modifications: 1_2A12
notes: GAT polypeptide
Take B3: the Kcat was found to be 3.82 s⁻¹ and the Km was found to be 1300 µM.

B4: SEQ ID NO: 472: GAT polypeptide (protein)
chain: MIEVKPINAEDTYELRHKILRPNQPLEACMYESDLLRSAFHLGGFYRGKLISIASFHKAEHSELQGQKQYQLRGMATLEGYRDQKAGSSLIRHAEEILRKRGADMLWCNARTSAAGYYKRLGFSEQGEVFDTPPVGPHILMYKRIT
modifications: 1_2D2
notes: GAT polypeptide
As for B4, the Kcat was found to be 2.07 s⁻¹ and the Km turned out to be 1200 µM.

B5: SEQ ID NO: 468: GAT polypeptide (protein)
chain: MIEVKPINAEDTYEIRHRILRPNQPLEACMYESDLLRGSFHLGGFYRGKLISIASFHQAEHSDLEGQKQYQLRGMATLEGYRDQKAGSSLIRHAEQILRKRGADLLWCNARTTAAGYYKRLGFSEQGEVFDTPPVGPHILMYKKLT
modifications: 1_1H5
notes: GAT polypeptide
Turning to B5, the Kcat is 1.57 s⁻¹ and the Km was determined as 1500 µM.

B6: SEQ ID NO: 474: GAT polypeptide (protein)
chain: MLEVKPINAEDTYELRHRILRPNQPLEACMYETDLLRGSFHLGGFYRGKLISIASFHQAEHSELEGQKQYQLRGMATLEGYRDQKAGSSLIRHAEEILRKRGADMLWCNARTTAAGYYKKLGFSEQGEIYDTPPVGPHILMYKKLT
modifications: 1_2F8
notes: GAT polypeptide
With B6, the Kcat came out at 2.68 s⁻¹ and the Km amounted to 1900 µM.

B7: SEQ ID NO: 476: GAT polypeptide (protein)
chain: MIEVKPINAEDTYELRHRILRPNQPIEACMYESDLLRGAFHLGGFYRGKLISIASFHQAEHSDLQGQKQYQLRGMATLEGYREQKAGSSLIRHAEEILRKKGADMLWCNARTTAAGYYKRLGFSEQGEVFDTPPVGPHILMYKRIT
modifications: 1_3A2
notes: GAT polypeptide
Turning to B7, the Kcat stood at 3.02 s⁻¹ and the Km is 800 µM.

B8: SEQ ID NO: 471: GAT polypeptide (protein)
chain: MLEVKPINAEETYELRHKILRPNQPIEACMYETDLLRGSFHLGGFYRGQLISIASFHQAEHSDLQGQKQYQLRGMATLEGYREQKAGSTLIKHAEELLRKKGADLLWCNARTTAAGYYKKLGFSEQGEVFDTPPVGPHILMYKKIT
modifications: 1_2C4
notes: GAT polypeptide
Turning to B8, the Kcat was 3.22 s⁻¹ and the Km worked out at 800 µM.

B9: SEQ ID NO: 473: GAT polypeptide (protein)
chain: MIEVKPINAEDTYELRHRILRPNQPIEACMYESDLLRGSFHLGGFYRGKLISIASFHQAEHSDLQGQKQYQLRGMATLEGYREQKAGSSLIKHAEQLLRKKGADMLWCNARTSAAGYYKRLGFSEHGEIFETPPVGPHILMYKRIT
modifications: 1_2D4
notes: GAT polypeptide
As for B9, the Kcat came to 3.03 s⁻¹ and the Km came out at 1200 µM.
